# Data reported in US20160002357A1 (Pfizer, published 2016).
# Numbering of substitutions follows the chain as printed.
# B1: 20 EK-DART (P-CAD 20 x CD3-2) (bispecific antibody)
# chain 1: AIQMTQSPSSLSASVGDRVTITCRASQSIGKYLNWYQQIPGKAPKLLIYTASTLQTGVPSRFSGSGSGTDFTLTIVSLQPEDFATYYCQQSFNTPRTFGQGTKVEIKGGGSGGGGEVQLVESGGGLVQPGGSLRLSCAASGFTFNTYAMNWVRQAPGKGLEWVARIRSKYNNYATYYADSVKDRFTISRDDSKNSLYLQMNSLKTEDTAVYYCVRHGNFGNSYVSWFAYWGQGTLVTVSSGGCGGGKVAALKEKVAALKEKVAALKEKVAALKE
# chain 2: QAVVTQEPSLTVSPGGTVTLTCRSSTGAVTTSNYANWVQQKPGQAPRGLIGGTNKRAPWTPARFSGSLLGGKAALTITGAQAEDEADYYCALWYSNLWVFGGGTKLTVLGGGGSGGGGEVQLVQSGAEVKKPGASVKVSCKASGYTFTGYYMHWVRQAPGQGLEWMGRINPNSGGTNYAQKFQGRVTMTRDTSISTAYMELSRLRSDDTAVYYCAKGSGSGAFDIWGQGTMVTVSSGGCGGGEVAALEKEVAALEKEVAALEKEVAALEK
# B2: 34 EK-DART (P-CAD 34 x CD3-2) (bispecific antibody)
# chain 1: QSVVTQPPSVSAAPGQKVTISCSGSSSNIGNNYVSWYQQLPGTAPKLLIYDNNKRPSGIPDRFSGSKSGTSATLGITGLQTGDEADYYCGTWDSSLSAWVFGGGTKLTVLGGGSGGGGEVQLVESGGGLVQPGGSLRLSCAASGFTFNTYAMNWVRQAPGKGLEWVARIRSKYNNYATYYADSVKDRFTISRDDSKNSLYLQMNSLKTEDTAVYYCVRHGNFGNSYVSWFAYWGQGTLVTVSSGGCGGGKVAALKEKVAALKEKVAALKEKVAALKE
# chain 2: QAVVTQEPSLTVSPGGTVTLTCRSSTGAVTTSNYANWVQQKPGQAPRGLIGGTNKRAPWTPARFSGSLLGGKAALTITGAQAEDEADYYCALWYSNLWVFGGGTKLTVLGGGGSGGGGEVQLVQSGAEVKKPGASVKVSCKASGYTFTSYGISWVRQAPGQGLEWMGWISAYNGNTNYAQKLQGRVTMTTDTSTSTAYMELRSLRSDDTAVYYCATIDTASAFDIWGQGTMVTVSSGGCGGGEVAALEKEVAALEKEVAALEKEVAALEK
# B3: 35 EK-DART (P-CAD 35 x CD3-2) (bispecific antibody)
# chain 1: B2 chain 1 with V4L, W99V
# chain 2: B2 chain 2
# B4: LP-DART #4 (bispecific antibody)
# chain 1: QAVVTQEPSLTVSPGGTVTLTCRSSTGAVTTSNYANWVQQKPGQAPRGLIGGTNKRAPWTPARFSGSLLGGKAALTITGAQAEDEADYYCALWYSNLWVFGGGTKLTVLGGGGSGGGGEVQLVQSGAEVKKPGASVKVSCKASGYTFTSYGISWVRQAPGQGLEWMGWISAYNGNTNYAQKLQGRVTMTTDTSTSTAYMELRSLRSDDTAVYYCATIDTASAFDIWGQGTMVTVSSGGTGGGEPKSSDKTHTCPPCPAPEAAGAPSVFLFPPKPKDTLMISRTPEVTCVVVDVSHEDPEVKFNWYVDGVEVHNAKTKPREEQYNSTYRVVSVLTVLHQDWLNGKEYKCKVSNKALPAPIEKTISKAKGQPREPQVCTLPPSREEMTKNQVSLWCLVKGFYPSDIAVEWESNGQPENNYKTTPPVLDSDGSFFLYSKLTVDKSRWQQGNVFSCSVMHEALHNHYTQKSLSLSPG
# chain 2: QSVLTQPPSVSAAPGQKVTISCSGSSSNIGNNYVSWYQQLPGTAPKLLIYDNNKRPSGIPDRFSGSKSGTSATLGITGLQTGDEADYYCGTWDSSLSAVVFGGGTKLTVLGGGSGGGGEVQLVESGGGLVQPGGSLRLSCAASGFTFNTYAMNWVRQAPGKGLEWVARIRSKYNNYATYYADSVKDRFTISRDDSKNSLYLQMNSLKTEDTAVYYCVRHGNFGNSYVSWFAYWGQGTLVTVSSGGTGGGEPKSSDKTHTCPPCPAPEAAGAPSVFLFPPKPKDTLMISRTPEVTCVVVDVSHEDPEVKFNWYVDGVEVHNAKTKPREEQYNSTYRVVSVLTVLHQDWLNGKEYKCKVSNKALPAPIEKTISKAKGQPREPQVYTLPPCREEMTKNQVSLSCAVKGFYPSDIAVEWESNGQPENNYKTTPPVLDSDGSFFLVSKLTVDKSRWQQGNVFSCSVMHEALHNHYTQKSLSLSPG
# notes: also called P-cadherin LP-DART construct #4 (P-CAD 35, CD3-2)
# B5: LP-DART #5 (bispecific antibody)
# chain 1: QAVVTQEPSLTVSPGGTVTLTCRSSTGAVTTSNYANWVQQKPGQAPRGLIGGTNKRAPWTPARFSGSLLGGKAALTITGAQAEDEADYYCALWYSNLWVFGGGTKLTVLGGGGSGGGGEVQLVQSGAEVKKPGASVKVSCKASGYTFTSYGISWVRQAPGQGLEWMGWISAYNGNTNYAQKLQGRVTMTTDTSTSTAYMELRSLRSDDTAVYYCATIDTASAFDIWGQGTMVTVSSGCPPCPAPEAAGAPSVFLFPPKPKDTLMISRTPEVTCVVVDVSHEDPEVKFNWYVDGVEVHNAKTKPREEQYNSTYRVVSVLTVLHQDWLNGKEYKCKVSNKALPAPIEKTISKAKGQPREPQVYTLPPCREEMTKNQVSLSCAVKGFYPSDIAVEWESNGQPENNYKTTPPVLDSDGSFFLVSKLTVDKSRWQQGNVFSCSVMHEALHNHYTQKSLSLSPG
# chain 2: QSVLTQPPSVSAAPGQKVTISCSGSSSNIGNNYVSWYQQLPGTAPKLLIYDNNKRPSGIPDRFSGSKSGTSATLGITGLQTGDEADYYCGTWDSSLSAVVFGGGTKLTVLGGGSGGGGEVQLVESGGGLVQPGGSLRLSCAASGFTFNTYAMNWVRQAPGKGLEWVARIRSKYNNYATYYADSVKDRFTISRDDSKNSLYLQMNSLKTEDTAVYYCVRHGNFGNSYVSWFAYWGQGTLVTVSSGCPPCPAPEAAGAPSVFLFPPKPKDTLMISRTPEVTCVVVDVSHEDPEVKFNWYVDGVEVHNAKTKPREEQYNSTYRVVSVLTVLHQDWLNGKEYKCKVSNKALPAPIEKTISKAKGQPREPQVCTLPPSREEMTKNQVSLWCLVKGFYPSDIAVEWESNGQPENNYKTTPPVLDSDGSFFLYSKLTVDKSRWQQGNVFSCSVMHEALHNHYTQKSLSLSPG
# notes: also called P-cadherin LP-DART construct #5 (P-CAD 35, CD3-2)
# Tests used:
# [1] = target: T1, human P-cadherin, cell surface expressed (human, UniProt P22223 108-829); assay: cell-based or functional assay
# [2] = target: T1, human P-cadherin, cell surface expressed; assay: cell-based or functional assay; remark: listed apart in the source
# [3] = target: T2, cynomolgus monkey P-cadherin ECD (cynomolgus monkey); assay: SPR
# T2 construct: extracellular domain; also called cyno P-cadherin ECD; Cyno P-cadherin
# [4] = target: human P-cadherin expressed on the cell surface (human, UniProt P22223 108-829); assay: cell-based or functional assay
# human P-cadherin expressed on the cell surface, sequence (P22223 108-829): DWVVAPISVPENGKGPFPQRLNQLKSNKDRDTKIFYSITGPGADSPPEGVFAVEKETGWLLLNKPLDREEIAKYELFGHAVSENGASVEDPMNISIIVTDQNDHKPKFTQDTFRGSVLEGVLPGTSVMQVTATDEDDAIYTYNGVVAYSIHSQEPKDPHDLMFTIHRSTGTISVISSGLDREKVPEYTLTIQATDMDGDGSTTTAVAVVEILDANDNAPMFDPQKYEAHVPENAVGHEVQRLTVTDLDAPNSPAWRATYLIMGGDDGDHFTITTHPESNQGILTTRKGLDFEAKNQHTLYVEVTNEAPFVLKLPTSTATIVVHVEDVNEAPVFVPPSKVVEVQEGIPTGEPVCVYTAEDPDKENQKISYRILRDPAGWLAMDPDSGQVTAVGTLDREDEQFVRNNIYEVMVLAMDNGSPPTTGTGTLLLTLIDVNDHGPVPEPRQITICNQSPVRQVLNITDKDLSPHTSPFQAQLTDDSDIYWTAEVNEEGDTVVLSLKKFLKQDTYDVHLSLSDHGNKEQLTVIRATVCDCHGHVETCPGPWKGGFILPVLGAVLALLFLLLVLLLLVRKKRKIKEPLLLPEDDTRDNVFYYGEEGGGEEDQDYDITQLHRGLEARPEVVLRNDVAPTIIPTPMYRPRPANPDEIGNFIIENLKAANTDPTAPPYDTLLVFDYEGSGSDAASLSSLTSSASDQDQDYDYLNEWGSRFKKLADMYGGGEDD
# T1 sequence (P22223 108-829): as above
binder,measurement,setting,value
B1,"T cell directed cytotoxicity EC50, CHO-CDh3 (24 h), LDH release, human PBMC E:T 30:1",[1],169 nM
same,"T cell directed cytotoxicity EC50, H1650 (24 h), LDH release, human PBMC E:T 30:1",[1],36.4 nM
B2,"T cell directed cytotoxicity EC50, CHO-CDh3 (24 h), LDH release, human PBMC E:T 30:1",[1],0.737 nM
same,"T cell directed cytotoxicity EC50, H1650 (24 h), LDH release, human PBMC E:T 30:1",[1],5.6 nM
same,"T cell directed cytotoxicity EC50, H1650 (40 h), LDH release, human PBMC E:T 30:1",[1],1.6 nM
B3,"T cell directed cytotoxicity EC50, CHO-CDh3 (24 h), LDH release, human PBMC E:T 30:1",[1],0.0398 nM
same,"T cell directed cytotoxicity EC50, H1650 (24 h), LDH release, human PBMC E:T 30:1",[1],0.501 nM
same,"T cell directed cytotoxicity EC50, H1650 (40 h), LDH release, human PBMC E:T 30:1",[1],0.0532 nM
same,"T cell directed cytotoxicity EC50, H1650 LDH 24 hr 30:1 D41183",[2],0.102 nM
same,"T cell directed cytotoxicity EC50, HCT116 Luc 48 hr 10:1 D43905",[2],0.205 nM
B4,Kd,[3],128 nM
same,T cell Cytotoxicity,[4],2.45 nM
B5,Kd,[3],62.1 nM
same,T cell Cytotoxicity,[4],0.74 nM
